This note sets out measurements from patent US20190351025A1 (HUDSON INSTITUTE OF MEDICAL RESEARCH, published 2019).

For test [1], the target named is mIFNAR2-ECD C94S (extracellular domain of mouse IFNAR2, His-tagged) (mouse) (UniProt O35664). In words: SPR, ProteOn XPR36, His-tagged receptor on HTG chip, Langmuir model, mean of 10 experiments.
The target of test [2] is T1, huIFNAR2 (human, UniProt P48551 27-243, limits assumed).
T1 sequence (looked up): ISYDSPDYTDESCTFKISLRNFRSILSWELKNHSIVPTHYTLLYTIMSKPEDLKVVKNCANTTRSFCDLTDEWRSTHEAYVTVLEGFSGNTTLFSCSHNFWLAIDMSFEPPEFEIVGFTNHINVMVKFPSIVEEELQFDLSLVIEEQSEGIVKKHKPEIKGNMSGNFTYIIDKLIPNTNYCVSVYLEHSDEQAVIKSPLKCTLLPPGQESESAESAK
In words: microscale thermophoresis (MST). In general terms: MST reads how a fluorescent partner responds to local heating, with and without ligand.

The target in test [3] is T1, huIFNAR2. The test is described as follows: microscale thermophoresis (MST), E. coli expressed huIFNε.
The target in test [4] is T2, mIFNAR1-ECD (extracellular domain of mouse IFNAR1, His-tagged) (mouse, UniProt P33896 27-429).
T2 construct: extracellular domain; The tag is placed at the C-terminus here only for lack of information; not shown: His-tag
T2 sequence (looked up): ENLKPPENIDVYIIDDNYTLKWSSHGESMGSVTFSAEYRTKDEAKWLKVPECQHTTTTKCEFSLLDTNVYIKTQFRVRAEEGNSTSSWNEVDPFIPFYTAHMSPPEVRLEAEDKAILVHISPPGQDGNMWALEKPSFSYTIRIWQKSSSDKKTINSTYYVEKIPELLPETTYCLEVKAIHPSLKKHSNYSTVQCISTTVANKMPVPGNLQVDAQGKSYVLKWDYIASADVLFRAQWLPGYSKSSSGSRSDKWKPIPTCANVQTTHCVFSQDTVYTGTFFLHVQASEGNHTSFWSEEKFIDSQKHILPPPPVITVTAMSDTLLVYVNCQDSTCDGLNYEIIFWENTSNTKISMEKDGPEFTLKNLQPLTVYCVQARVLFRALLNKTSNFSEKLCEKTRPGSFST
In words: SPR, ProteOn XPR36, His-tagged receptor on HTG chip, Langmuir model, n=9 experiments. As for the experimental part: (§1) For Surface Plasmon Resonance (SPR), mIFNAR1-ECD and rmIFN were expressed and purified from mammalian cell and insect cell culture, respectively, as previously described (Stifter et al. (2014) Protein Expr Purif 94:7-14); mIFNAR2-ECDC94S and rmIFN 1 were expressed and purified from mammalian cell culture also as previously described (de Weerd et al. (2013) supra). huIFNε is produced in a similar manner All SPR experiments were carried out on a ProteOn XPR36 (Bio-Rad Labs) using a HTG chip for His-tagged proteins and TBS as the running buffer. mIFNAR1-ECD and mIFNAR2-ECDC94S were immobilized to the nickel activated chip via the His-tags after dilution to […] in TBS. All IFNs (rmIFN 1, rmIFN and rmIFN) were diluted in TBS to various concentrations ranging from 40 nM to […]. All data were referenced according to the manufacturer's instructions (Bio-Rad) and analyzed using the Langmuir binding model. Data were considered for inclusion in the analysis only if the Chit value (the measure of error between measured and fitted values) was less than 10% of the Rₘₐₓ as per the manufacturer's instructions (Bio-Rad). Kₐ (1/Ms), Kd (1/s) and KD (nM) were calculated by the ProteOn Manager software and are represented as mean (+SD) from at least triplicate experiments. Significance was determined using one-way ANOVA with Dunnett's multiple comparisons testing. […]

Test [5] addresses T2, mIFNAR1-ECD (extracellular domain of …). The test is described as follows: SPR, ProteOn XPR36, His-tagged receptor on HTG chip. How it is done: as §1
Test [6] concerns the target mIFNAR2-ECD C94S (extracellular domain of mouse IFNAR2, His-tagged) (mouse) (UniProt O35664). Described as above.
For test [7], the target named is T2, mIFNAR1-ECD (extracellular domain of …). The test is described as follows: SPR, ProteOn XPR36, His-tagged receptor on HTG chip, Langmuir model, n=10 experiments. As for the experimental part: as §1
A general note: In SPR one partner is held on a chip, and binding of the other changes the refractive index at the surface.

Sequence of mIFNAR2-ECD C94S (extracellular domain of mouse IFNAR2, His-tagged) (mouse) (O35664 22-242, stated change not applied): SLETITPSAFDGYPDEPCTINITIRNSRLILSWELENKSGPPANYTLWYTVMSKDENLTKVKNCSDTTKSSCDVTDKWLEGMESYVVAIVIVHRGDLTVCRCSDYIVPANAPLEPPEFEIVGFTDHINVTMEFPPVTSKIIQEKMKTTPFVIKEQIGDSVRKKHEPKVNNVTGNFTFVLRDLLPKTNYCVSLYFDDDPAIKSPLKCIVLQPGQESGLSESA

One may read the Kd as the constant that tells how readily two partners part at equilibrium. Higher therefore signals lower affinity. “recombinant murine interferon alpha 1 (rmIFNα1) (from UniProt P01572 24-189) (ligand)” gave a Kd in test [1] of 1.68 nM.

B1: huIFNβ (ligand, human, UniProt P01574 22-187, looked up)
chain: MSYNLLGFLQRSSNFQCQKLLWQLNGRLEYCLKDRMNFDIPEEIKQLQQFQKEDAALTIYEMLQNIFAIFRQDSSSTGWNETIVENLLANVYHQINHLKTVLEEKLEKEDFTRGKLMSSLHLKRYYGRILHYLKAKEYSHCAWTIVRVEILRNFYFINRLTGYLRN
notes: Comparator in the MST measurement; The source of the protein is not clearly stated; also called rhuIFNβ
Take B1: in the test with huIFNAR2 [2], the Kd turned out to be 0.25 nM.

B2: human interferon epsilon (huIFNε), E. coli expressed and refolded (ligand)
chain: LDLKLIIFQQRQVNQESLKLLNKLQTLSIQQCLPHRKNFLLPQKSLSPQQYQKGHTLAILHEMLQQIFSLFRANISLDGWEENHTEKFLIQLHQQLEYLEALMGLEAEKLSGTLGSDNLRLQVKMYFRRIHDYLENQDYSTCAWAIVQVEISRCLFFVFSLTEKLSKQGRPLNDMKQELTTEFRSPRSA
notes: also called hIFN; rhIFN
The molecule B2 showed a Kd with huIFNAR2 [3] of 8190 nM.

B3: recombinant murine interferon epsilon (rmIFNε) (ligand)
chain: LEPKRIPFQLWMNRESLQLLKPLPSSSVQQCLAHRKNFLLPQQPVSPHQYQEGQVLAVVHEILQQIFTLLQTHGTMGIWEENHIEKVLAALHRQLEYVESLGGLNAAQKSGGSSAQNLRLQIKAYFRRIHDYLENQRYSSCAWIIVQTEIHRCMFFVFRFTTWLSRQDPDP
notes: also called muIFNε; MuIFNε
In turn, B3 yielded a Kd in test [4] of 556 nM. In test [5], the “fold lower affinity than the rmIFNβ-IFNAR1-ECD interaction” value was approximately 200 fold. Moreover, the fold lower affinity than rmIFNα1 in test [6] was more than 1000 fold.

B4: recombinant murine interferon beta (rmIFNβ) (ligand, UniProt P01575 22-182, looked up)
chain: INYKQLQLQERTNIRKCQELLEQLNGKINLTYRADFKIPMEMTEKMQKSYTAFAIQEMLQNVFLVFRNNFSSTGWNETIVVRLLDELHQQTVFLKTVLEEKQEERLTWEMSSTALHLKSYYWRVQRYLKLMKYNSYAWMVVRAEIFRNFLIIRRLTRNFQN
notes: Printed as 'rmIFN' with the Greek letter lost
In test [7], B4 displayed a Kd of 2.45 nM.
